Measured values published in the RNAGym collection of RNA variant scans (doi:10.1073/pnas.2313332121).

B1: TPR t1 (parent)
chain: GACCAAUCUGCCCUCAGAGCUCGAGAACAUCUUCGGAUGCAGAGGAGGCAGGCUUCGGUGGCGCGAUAGCGCCAACGUCCUCAACCUCCAAUGCAUCCCACCACAUGAUGAUGCCUGAAGAGCCUUGGUUUUUUG

Variants of: B1
Test: polymerase ribozyme fitness, log enrichment relative to wild type (log ratio); higher = more active; in vitro selection for triplet polymerase activity
Procedure, shortened: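 A heterodimeric triplet polymerase ribozyme had each of its subunits mutagenized by PCR into a library, which was transcribed. One round of in vitro selection, done in triplicate, annealed each library with a biotinylated primer, its partner subunit and triplets, then incubated it frozen at −7 °C before gel excision of extended constructs, streptavidin-bead capture and RT-PCR. Fitness is the logarithm of genotype enrichment relative to wild-type enrichment, based on Illumina sequencing of inputs and outputs and inverse-variance-weighted replicate averages. A base-2 logarithm is used, and genotypes were kept only with ≥10 input reads and ≥1 read per output.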

| Variant | polymerase ribozyme fitness (log ratio) |
| --- | --- |
| U55A C80A C86G C124G | -4.35 |
| G52U C73U U96G A121G | 1.57 |
| C56A C73G | -2.34 |
| G52A U130C | -0.159 |
| C53A G60A U133A | -1.16 |
| C53U G110U | -1.81 |
| C53U G110C | -3.51 |
| C56A A83C | -0.237 |
| C53G U112A | 0.666 |
| C53U G61C | 0.349 |
| C53G U54C A121C | 1.78 |
| C53U U129A | -1.24 |
| G52U A68G G77C | -4.82 |
| C53G U92G A105U | -6.44 |
| C53A G63U U81G A83U G120C | -3.85 |
| C53U G69U | 0.587 |
| C53G C115G | -1.44 |
| C56A C72U | -0.391 |
| U54A C70G C88U | -3.24 |
| C56A C73U A84U G120U | -1.05 |
| G52U G69C C73A | -2.55 |
| U55A G63A C85G C88G | -2.1 |
| C53A G61A U78G | 0.644 |
| C53U C73G G113C U132C | -3.47 |

| Variant | polymerase ribozyme fitness (log ratio) |
| --- | --- |
| U55A U81A G107U A111U | -4.76 |
| U55A G61C U96A G120C | -1.22 |
| C53U A83C U87C | 0.394 |
| C53A G71U G128C | -2.77 |
| U54A U81G G120A | -3.57 |
| C56A A121G | 1.77 |
| C56A A121U | 1.42 |
| U54G U109G | -4.29 |
| C53G C70A | -3.68 |
| C53U C56A | -0.566 |
| C53G C86A A118G | -1.38 |
| C53A C56U G58A U133G | -0.438 |
| C53U C72U C82G C123G | -0.45 |
| C53A C114A | -1.87 |
| U55A G69C C104U C115A | -0.166 |
| U55C A105G C123G | -0.655 |
| U55C G61A U125A | -0.857 |
| C53A C123G | 2.31 |
| C53G C123A | 0.261 |
| U54G A91C G113U A121C | -2.85 |
| C56A G71A U78G G128C U129A | -4.83 |
| C53U G71U U81A C123U G135A | -0.21 |
| U54A U116G | -1.91 |
| C53U C64U U106A | -1.12 |

| Variant | polymerase ribozyme fitness (log ratio) |
| --- | --- |
| C53G G113A | -1.24 |
| C53A A84U G117U C123G | -0.712 |
| C53U C97U | -0.844 |
| G52C C89G G127C | -2.37 |
| U54G U116A | -3.36 |
| C53A C124U U129G | -0.384 |
| C53G G71U | -0.129 |
| U54A G60C G117C | -3.99 |
| U55A G71A C82A C115A | -0.992 |
| U55A C62A U78C C79A U125G U133G | -3.28 |
| U54A U106A C124A U129C | 0.971 |
| C53G C101G | -1.65 |
| C56A C97A | -3.81 |
| G52U G58C | -0.674 |
| U54C C80A U125A | -2.52 |
| C53U G113U | -1.43 |
| C53G U78C U81C U106A | -3.38 |
| G52U C73G | -1.11 |
| C53A C56A U87C G120C | 1.18 |
| C53U C64U G93U | -1.53 |
| C53U C72A A91G U132A | 0.186 |
| C56A C101A | -0.979 |
| C56A C115A U126C | -1.19 |
| U55G C62U C102A | -1.77 |

| Variant | polymerase ribozyme fitness (log ratio) |
| --- | --- |
| C53U U92A G113A G117A C124A | -5.57 |
| G52C C114U G127U U133A | -6.16 |
| U54G C88A A105U | -2.56 |
| G52U U59G C88A C101U | -1.76 |
| G52C G71U C73U C104U G120C | -2.42 |
| U55A C73A C104A A118G G122U | -1.07 |
| C56A C62U C124U | 1.48 |
| G52U C56A A66U C102A | -6.29 |
| C56A | -0.243 |
| U54G C56G A83C | -2.03 |
| C56A A68G | -2.75 |
| U54C G71A C85G C101U U112G G120C | -4.36 |
| U55C C56U | 0.598 |
| C53A C72G | 0.124 |
| G52C G93A G113A A119G | -1.29 |
| C53U U126C | -1.07 |
| C53U G69U C70U C82U | -0.71 |
| G52C G120U | -0.715 |
| G52C G120C | -0.0985 |
| U54G A84C | -0.587 |
| U55C G69C C76U C89A A121U U125G | -4.56 |
| U55G U96A | -1.38 |
| C53A G60A A100U G120C C123G | -1.07 |
| U54G C123G | 0.306 |

| Variant | polymerase ribozyme fitness (log ratio) |
| --- | --- |
| U54C G61A | -0.24 |
| C53A U54A C62U C80A C114A C124G U125A | -6.53 |
| U54G G69U G117U | -3.75 |
| C53U U78C C124G | 1.86 |
| G52C U59C G120U U125C | -0.0154 |
| C53U C88A G110A U112G | -4.23 |
| C53A U54G C70U C86U C89G A121C U125A | -2 |
| C56A G60A U116G G135A | -3.36 |
| G52C G127U | -1.33 |
| C53A U78C | -0.332 |
| G52U A121C | 1.02 |
| G52U C70U U78A C101G G128A | -3.89 |
| U54A U92C G128A | -3.16 |
| U55C C89U C115U | -3.71 |
| U55C U96A U106A | -0.506 |
| C53U G63U A90C C104A A121G C123A | -4.29 |
| U55A U78G C82A G110A | -2.58 |
| C56A C123U C124U | 1.2 |
| U55A G69U C82G | 0.171 |
| C53A G71A C85A | -4.06 |
| G52U G61U U81C C115U | -4.28 |
| C56A C123G | 1.24 |
| U55G A95U A111C A121U G127C | 0.185 |
| C53G C97U C104A A118G | -3.19 |

| Variant | polymerase ribozyme fitness (log ratio) |
| --- | --- |
| G52U C64U C82G | -2.19 |
| U55C G61A | -0.329 |
| G52C C70A G117C | -5.92 |
| U54G C56A U132C | -1.66 |
| U54G C86U G117U | -2.55 |
| U55C C82A | 0.163 |
| G52U G61A C102U U126C | -3.23 |
| G52U C123A | -0.303 |
| C53U U87A C97A | -5.45 |
| C56A C88U G120U | -0.86 |
| U54G U125A U126A | -2 |
| C53G G117C | -3.47 |
| G52U C72U C80U C98U | -3.28 |
| C53A C56A G77C C89G | -0.889 |
| U54A C115G | -2.09 |
| U54G C72A | -1.41 |
| U54G C56G C72A G93A C124A U125A | -2.75 |
| C53G G120U | -0.149 |
| U54A C94A G113U | -3.97 |
| C56A G69U A119G | 0.438 |
| C53U G60A A74C | -0.941 |
| C56A G107C | -5.28 |
| U55G C102A G110A U130A | -6.51 |
| U55C C62G | -1.97 |

| Variant | polymerase ribozyme fitness (log ratio) |
| --- | --- |
| U54C C101G | -1 |
| C53U G69U C88G G110C C115A A121C C124G | -2.79 |
| U54A U59G | -0.218 |
| U54C G93C G117A | -2.18 |
| C53A C72G C88U C123G | 1.36 |
| C53G C114U G127C | -2.8 |
| C53U C70A A84C A100U | -3.17 |
| C53G C79A G120C U133A | -4.39 |
| U55C U125A | -1.11 |
| G52U A95G | -0.694 |
| C53G G69C | -0.98 |
| U54A C82U G113A | -1.2 |
| U54C A118G | -0.7 |
| G52U G93A C114G | -4.8 |
| U54C U59C G61U U125A | -6.69 |
| U55C G120U C123G U131A | -0.058 |
| C53G G117A U130C | -1.46 |
| U54A C124A | -0.2 |
| C53A C79U C94G C101A | -1.64 |
| G52U C73U U129C | -1.39 |
| U54G C89U | -0.559 |
| G52U C73G U112A G120A C124A U126A | -0.0832 |
| C53U U133A | -0.343 |
